In patent US20250059278A1 (SICHUAN HUIYU PHARMACEUTICAL, published 2025):

B1: Positive control antibody OKT3 (antibody, V domains shown)
VH: not shown
VL: QIVLTQSPAIMSASPGEKVTMTCSASSSVSYMNWYQQKSGTSPKRWIYDTSKLASGVPAHFRGSGSGTSYSLTISGMEAEDAATYYCQQWSSNPFTFGSGTKLEI
B2: CD3 monoclonal antibody M28 (antibody, human IgG1, lambda, V domains shown)
VH: EVQLVESGGGLVQPGGSLRLSCAASGFTFNTYAMNWVRQAPGKGLEWVARIRSKYNNYATYYADSVKDRFTISRDDSKSILYLQMNSLKTEDTAMYYCVRHHNFGNSYVSWFAYWGQGTLVTVSS
VL: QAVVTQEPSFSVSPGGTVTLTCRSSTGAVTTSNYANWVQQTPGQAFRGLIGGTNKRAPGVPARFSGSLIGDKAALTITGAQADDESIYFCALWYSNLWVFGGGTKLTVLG
notes: IgG: VH28 + IgG1 mutant CH, VL-1 + CL
B3: Control antibody 1 (antibody, V domains shown)
VH: EVQLVESGGGLVQPKGSLKLSCAASGFTFNTYAMNWVRQAPGKGLEWVARIRSKYNNYATYYADSVKDRFTISRDDSQSILYLQMNNLKTEDTAMYYCVRHGNFGNSYVSWFAYWGQGTLVTVSA
VL: QAVVTQESALTTSPGETVTLTCRSSTGAVTTSNYANWVQEKPDHLFTGLIGGTNKRAPGVPARFSGSLIGDKAALTITGAQTEDEAIYFCALWYSNLWVFGGGTKLTVL
notes: also called positive control antibody 1
B4: CD3 monoclonal antibody M5 (antibody, human IgG1, lambda, V domains shown)
VH: EVQLVESGGGLVQPGGSLRLSCAASGFTFNTYAMNWVRQAPGKGLEWVARIRSKYNNYATYYADSVKDRFTISRDDSKSILYLQMNSLKTEDTAVYYCVRHGNFKNSYVSWFAYWGQGTLVTVSS
VL: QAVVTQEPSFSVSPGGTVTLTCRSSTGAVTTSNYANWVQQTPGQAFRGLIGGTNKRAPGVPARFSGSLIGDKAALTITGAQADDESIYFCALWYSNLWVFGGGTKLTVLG
notes: IgG: VH5 + IgG1 mutant CH, VL-1 + CL
B5: CD3 monoclonal antibody M10 (antibody, human IgG1, lambda, V domains shown)
VH: EVQLVESGGGLVQPGGSLRLSCAASGFTFNTYAMNWVRQAPGKGLEWVARIRSKYNNYATYYADSVKDRFTISRDDSKSSLYLQMNSLKTEDTAVYYCVRHSNFRNSYVSWFAYWGQGTLVTVSS
VL: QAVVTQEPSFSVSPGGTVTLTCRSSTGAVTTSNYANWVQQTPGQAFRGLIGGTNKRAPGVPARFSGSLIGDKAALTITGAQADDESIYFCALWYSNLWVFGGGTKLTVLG
notes: IgG: VH10 + IgG1 mutant CH, VL-1 + CL
B6: CD3 monoclonal antibody M8 (antibody, human IgG1, lambda, V domains shown)
VH: EVQLVESGGGLVQPGGSLRLSCAASGFTFNTYAMNWVRQAPGKGLEWVARIRSKYNNYATYYADSVKDRFTISRDDSKSSLYLQMNNLKTEDTAMYYCVRHGNFGNTYVSWFAMWGQGTLVTVSS
VL: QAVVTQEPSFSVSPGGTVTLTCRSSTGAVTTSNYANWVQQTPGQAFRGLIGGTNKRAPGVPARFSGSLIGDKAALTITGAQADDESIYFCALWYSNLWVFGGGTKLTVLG
notes: IgG: VH8 + IgG1 mutant CH, VL-1 + CL
B7: CD3 monoclonal antibody M11 (antibody, human IgG1, lambda, V domains shown)
VH: EVQLVESGGGLVQPGGSLRLSCAASGFTFNTYAMNWVRQAPGKGLEWVARIRSKYNNYATYYADSVKDRFTISRDDSKSSLYLQMNSLKTEDTAVYYCVRHSNFVNSYVSWFAYWGQGTLVTVSS
VL: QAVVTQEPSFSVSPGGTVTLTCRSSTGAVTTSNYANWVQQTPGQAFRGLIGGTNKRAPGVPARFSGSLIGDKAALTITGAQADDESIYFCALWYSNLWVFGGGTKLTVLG
notes: IgG: VH11 + IgG1 mutant CH, VL-1 + CL
B8: CD3 monoclonal antibody M13 (antibody, human IgG1, lambda, V domains shown)
VH: EVQLVESGGGLVQPGGSLRLSCAASGFTFNTYAMNWVRQAPGKGLEWVARIRSKYNNYATYYADSVKGRFTISRDDSKSSLYLQMNSLKTEDTAVYYCVRHGNFKNSYGSWFAYWGQGTLVTVSS
VL: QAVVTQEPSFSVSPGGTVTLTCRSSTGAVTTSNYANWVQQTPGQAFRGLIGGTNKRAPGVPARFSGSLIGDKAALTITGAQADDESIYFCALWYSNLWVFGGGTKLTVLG
notes: IgG: VH13 + IgG1 mutant CH, VL-1 + CL
B9: CD3 monoclonal antibody M15 (antibody, human IgG1, lambda, V domains shown)
VH: EVQLVESGGGLVQPGGSLRLSCAASGFTFNTYAMNWVRQAPGKGLEWVARIRSKYNNYATYYADSVKDRFTISRDDSKSSLYLQMNSLKTEDTAMYYCVRHGDPGNSYVSWFAYWGQGTLVTVSS
VL: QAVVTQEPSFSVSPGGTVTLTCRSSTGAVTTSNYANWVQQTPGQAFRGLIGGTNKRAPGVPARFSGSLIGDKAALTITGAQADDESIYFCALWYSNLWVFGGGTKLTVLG
notes: IgG: VH15 + IgG1 mutant CH, VL-1 + CL
B10: CD3 monoclonal antibody M7 (antibody, human IgG1, lambda, V domains shown)
VH: EVQLVESGGGLVQPGGSLRLSCAASGFTFNTYAMNWVRQAPGKGLEWVARIRSKYNNYATYYADSVKDRFTISRDDSKSSLYLQMNNLKTEDTAMYYCVRAGNFGNSYVSWFEYWGQGTLVTVSS
VL: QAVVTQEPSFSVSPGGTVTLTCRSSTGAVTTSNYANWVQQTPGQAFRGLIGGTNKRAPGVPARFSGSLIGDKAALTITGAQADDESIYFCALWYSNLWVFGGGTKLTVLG
notes: IgG: VH7 + IgG1 mutant CH, VL-1 + CL
B11: CD3 monoclonal antibody M1 (antibody, human IgG1, lambda, V domains shown)
VH: EVQLVESGGGLVQPGGSLRLSCAASGFTFNTYAMNWVRQAPGKGLEWVARIRSKYNNYATYYADSVKGRFTISRDDSKSILYLQMNNLKTEDTAMYYCVRHANFLNSYVSWFAYWGQGTLVTVSS
VL: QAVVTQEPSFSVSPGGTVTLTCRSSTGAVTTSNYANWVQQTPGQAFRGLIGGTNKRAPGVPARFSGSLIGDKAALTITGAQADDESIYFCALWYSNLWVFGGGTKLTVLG
notes: IgG: VH1 + IgG1 mutant CH, VL-1 + CL
B12: CD3 monoclonal antibody M14 (antibody, human IgG1, lambda, V domains shown)
VH: EVQLVESGGGLVQPGGSLRLSCAASGFTFNTYAMNWVRQAPGKGLEWVARIRSKYNNYATYYADSVKDRFTISRDDSKSSLYLQMNSLKTEDTAMYYCVRHSNFGNSYVSWFEYWGQGTLVTVSS
VL: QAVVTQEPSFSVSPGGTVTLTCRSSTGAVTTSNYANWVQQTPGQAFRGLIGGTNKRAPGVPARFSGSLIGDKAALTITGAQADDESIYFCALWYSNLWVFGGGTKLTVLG
notes: IgG: VH14 + IgG1 mutant CH, VL-1 + CL
B13: CD3 monoclonal antibody M3 (antibody, human IgG1, lambda, V domains shown)
VH: EVQLVESGGGLVQPGGSLRLSCAASGFTFNTYAMNWVRQAPGKGLEWVARIRSKYNNYATYYADSVKDRFTISRDDSKSILYLQMNSLKTEDTAMYYCVRHGNFGNSYVSWFEYWGQGTLVTVSS
VL: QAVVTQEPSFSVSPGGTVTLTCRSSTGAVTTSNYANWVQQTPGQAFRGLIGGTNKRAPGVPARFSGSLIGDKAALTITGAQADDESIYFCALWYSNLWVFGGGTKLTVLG
notes: IgG: VH3 + IgG1 mutant CH, VL-1 + CL
B14: CD3 monoclonal antibody M12 (antibody, human IgG1, lambda, V domains shown)
VH: EVQLVESGGGLVQPGGSLRLSCAASGFTFNTYAMNWVRQAPGKGLEWVARIRSKYNNYATYYADSVKGRFTISRDDSKSSLYLQMNNLKTEDTAMYYCVRHSNFPNSYVSWFAYWGQGTLVTVSS
VL: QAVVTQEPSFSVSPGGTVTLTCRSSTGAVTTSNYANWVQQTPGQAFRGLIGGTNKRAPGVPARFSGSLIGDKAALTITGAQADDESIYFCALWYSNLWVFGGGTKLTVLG
notes: IgG: VH12 + IgG1 mutant CH, VL-1 + CL
B15: CD3 monoclonal antibody M2 (antibody, human IgG1, lambda, V domains shown)
VH: EVQLVESGGGLVQPGGSLRLSCAASGFTFNTYAMNWVRQAPGKGLEWVARIRSKYNNYATYYADSVKGRFTISRDDSKSSLYLQMNSLKTEDTAMYYCVRAKNFGNSYVSWFAYWGQGTLVTVSS
VL: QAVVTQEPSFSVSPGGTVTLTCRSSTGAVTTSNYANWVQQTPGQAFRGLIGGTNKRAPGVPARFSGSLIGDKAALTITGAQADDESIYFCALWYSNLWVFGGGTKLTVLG
notes: IgG: VH2 + IgG1 mutant CH, VL-1 + CL
B16: CD3 monoclonal antibody M4 (antibody, human IgG1, lambda, V domains shown)
VH: EVQLVESGGGLVQPGGSLRLSCAASGFTFNTYAMNWVRQAPGKGLEWVARIRSKYNNYATYYADSVKDRFTISRDDSKSILYLQMNNLKTEDTAVYYCVRHGNFQNSYVSWFQYWGQGTLVTVSS
VL: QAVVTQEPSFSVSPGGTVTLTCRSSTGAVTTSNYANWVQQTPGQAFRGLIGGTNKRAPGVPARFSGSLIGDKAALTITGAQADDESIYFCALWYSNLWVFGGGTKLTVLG
notes: IgG: VH4 + IgG1 mutant CH, VL-1 + CL
B17: CD3 monoclonal antibody M9 (antibody, human IgG1, lambda, V domains shown)
VH: EVQLVESGGGLVQPGGSLRLSCAASGFTFNTYAMNWVRQAPGKGLEWVARIRSKYNNYATYYADSVKGRFTISRDDSKSILYLQMNSLKTEDTAMYYCVRHGNFGNSYVSWFKYWGQGTLVTVSS
VL: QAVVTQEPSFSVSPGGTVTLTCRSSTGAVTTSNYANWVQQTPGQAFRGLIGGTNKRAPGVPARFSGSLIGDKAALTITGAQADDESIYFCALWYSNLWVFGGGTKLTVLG
notes: IgG: VH9 + IgG1 mutant CH, VL-1 + CL
B18: CD3 monoclonal antibody M6 (antibody, human IgG1, lambda, V domains shown)
VH: EVQLVESGGGLVQPGGSLRLSCAASGFTFNTYAMNWVRQAPGKGLEWVARIRSKYNNYATYYADSVKGRFTISRDDSKSSLYLQMNSLKTEDTAMYYCVRHGNFYNSYVSWFAHWGQGTLVTVSS
VL: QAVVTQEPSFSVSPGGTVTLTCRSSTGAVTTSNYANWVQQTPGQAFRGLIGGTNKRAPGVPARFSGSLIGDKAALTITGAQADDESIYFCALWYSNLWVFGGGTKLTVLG
notes: IgG: VH6 + IgG1 mutant CH, VL-1 + CL

Columns and labels:
[1] = biological target: T1, Monkey CD3 on cynomolgus HSC-F cells (cynomolgus monkey, UniProt Q95LI5 22-198; Q95LI7 23-181; Q95LI8 22-171); assay: flow cytometry on HSC-F cells
T1 construct: whole, on cells; also called Monkey CD3-expressing cynomolgus HSC-F cells; cynomolgus monkey CD3-expressing HSC-F cells

[2] = biological target: T2, Human CD3 on Jurkat cells (human, UniProt P07766 23-207; P09693 23-182; P04234 22-171); assay: flow cytometry on Jurkat cells
T2 construct: whole, on cells; also called Human CD3-expressing Jurkat cells; Jurkat (naturally expressing human CD3)

[3] = biological target: T3, Human CD3εγ recombinant antigen (acrobiosystems, Cat. No. CDG-H52W5) (human, UniProt P07766 23-126; P09693 23-116); assay: SPR chip (Carterra), antibody captured, antigen in flow;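 also: antibodies captured through anti-human IgG Fc at roughly 1000 RU, kinetic constants fitted with a 1:1 binding model in Carterra analysis software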
T3 construct: Bought recombinant protein
Protocol: Antibodies at three concentrations of 4, 2, and 1 μg/mL were immobilized on the HC200M chip containing anti-human IgG Fc secondary antibody (Xantec, Cat. No.: HC200M), and the antibody binding amount was controlled to approximately 1000RU. […] The kinetic constants were obtained by fitting using the 1:1 binding model of Kinetics software from Carterra.

Row | Binder | binding result [1] | EC50 [2] [nM] | Kd [3] [nM] | koff [3] [s⁻¹] | kon [3] [M⁻¹ s⁻¹] | EC50 [1] [nM]
1 | B1 | no binding (tested: 2 µg/ml starting concentration) | – | – | – | – | –
2 | B2 | – | 0.854 | 2.53 | 0.00237 | 938000 | 0.287
3 | B3 | – | 0.473 | – | – | – | 0.487
4 | B4 | – | 0.154 | 5.84 | 0.0101 | 1.74e+06 | 0.152
5 | B5 | – | 1.23 | 2.15 | 0.00653 | 3.04e+06 | 0.194
6 | B6 | – | 0.268 | 5.16 | 0.0032 | 620000 | 0.186
7 | B7 | – | 0.13 | 2.95 | 0.00677 | 2.3e+06 | 0.169
8 | B8 | – | 0.832 | 3.33 | 0.00045 | 135000 | 0.276
9 | B9 | – | 0.166 | 160 | – | – | 0.118
10 | B10 | – | 1.71 | 2.39 | 0.0011 | 460000 | 0.69
11 | B11 | – | 0.581 | 2.57 | 0.0105 | 4.09e+06 | 0.117
12 | B12 | – | 1.51 | 0.624 | 0.00128 | 2.05e+06 | 0.271
13 | B13 | – | 0.261 | 1.36 | 0.0015 | 1.1e+06 | 0.315
14 | B14 | – | 0.27 | 1.93 | 0.00768 | 3.97e+06 | 0.162
15 | B15 | – | 0.214 | 6.6 | 0.00363 | 550000 | 0.225
16 | B16 | – | 0.402 | 3.4 | 0.00517 | 1.52e+06 | 0.434
17 | B17 | – | 1.51 | 1.92 | 0.0025 | 1.3e+06 | 0.237
18 | B18 | – | 0.169 | 3.63 | 0.00354 | 973000 | 0.172
